Measurements from patent publication US20100113575A1.
Values belong to the substance of their own block, whether it stands above or below them.

What was measured:
[1] = target: autoprocessed, secreted PCSK9-152FLAG-V5/His (human) (UniProt Q8NBP7); test: TR-FRET on cell media, 50,000 cells per well
[2] = target: LDLR (UniProt P01130); test: cell-based or functional assay

window of the TR-FRET ratio against PCSK9-152FLAG-V5/His-S386A [1]: 3 fold
Substance: Eu+3-labeled anti-FLAG M1 antibody

activity in PCSK9-dependent LDL uptake against processed PCSK9 [2]: 20 fold
Substance: purified nonprocessed D186A PCSK9 (from UniProt Q8NBP7 31-692) (enzyme)

EC50, inhibition of diI-LDL uptake in HEK293 cells [2]: 189 nM | fold decrease in potency in the PCSK9-dependent LDL-uptake assay against WT PCSK9 [2]: 4 fold
Substance: purified processed D186A PCSK9 (with retained pro domain) (from UniProt A8T644 31-152; Q8NBP7 153-692) (enzyme)
